# Reference: publication PMC4705658
# T1: Gbp2 RRM3 (Saccharomyces cerevisiae, UniProt P25555 330-427)
# T1 sequence: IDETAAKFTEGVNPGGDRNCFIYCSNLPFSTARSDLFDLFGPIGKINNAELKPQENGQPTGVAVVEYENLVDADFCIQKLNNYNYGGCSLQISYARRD
# T2: Hrb1 RRM2 (Saccharomyces cerevisiae, UniProt P38922 261-338)
# T2 sequence: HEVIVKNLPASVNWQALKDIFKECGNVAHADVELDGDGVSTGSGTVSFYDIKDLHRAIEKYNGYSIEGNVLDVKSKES
# T3: Gbp2 RRM123 (Saccharomyces cerevisiae, UniProt P25555 122-427)
# T3 sequence: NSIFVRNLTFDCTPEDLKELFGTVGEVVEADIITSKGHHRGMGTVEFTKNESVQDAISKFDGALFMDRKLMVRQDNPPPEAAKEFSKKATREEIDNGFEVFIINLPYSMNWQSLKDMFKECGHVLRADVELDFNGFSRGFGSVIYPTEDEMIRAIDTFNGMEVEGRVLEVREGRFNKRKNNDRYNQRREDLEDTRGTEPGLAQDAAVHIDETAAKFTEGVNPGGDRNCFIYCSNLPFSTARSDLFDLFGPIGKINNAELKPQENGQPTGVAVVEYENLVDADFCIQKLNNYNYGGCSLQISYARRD
# T4: Gbp2 RRM12 (Saccharomyces cerevisiae, UniProt P25555 122-316)
# T4 sequence: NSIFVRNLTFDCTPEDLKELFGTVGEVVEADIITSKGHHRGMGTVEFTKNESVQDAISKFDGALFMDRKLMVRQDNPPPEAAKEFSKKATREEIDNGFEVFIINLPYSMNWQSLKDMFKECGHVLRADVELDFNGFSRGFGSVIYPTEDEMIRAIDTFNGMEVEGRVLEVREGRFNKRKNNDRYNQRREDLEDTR
# T5: Gbp2 RRM2 (Saccharomyces cerevisiae, UniProt P25555 219-316)
# T5 sequence: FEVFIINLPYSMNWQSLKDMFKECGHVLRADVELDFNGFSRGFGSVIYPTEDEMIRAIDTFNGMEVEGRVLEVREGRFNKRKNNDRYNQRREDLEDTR
# Tests used:
# Gbp2 RRM3 [1] = biological target: T1, Gbp2 RRM3; assay: NMR HSQC titration
# Hrb1 RRM2 = biological target: T2, Hrb1 RRM2; assay: fluorescence EMSA
# Gbp2 RRM123 = biological target: T3, Gbp2 RRM123; assay: fluorescence anisotropy
# Gbp2 RRM12 = biological target: T4, Gbp2 RRM12; assay: fluorescence anisotropy
# Gbp2 RRM2 = biological target: T5, Gbp2 RRM2; assay: fluorescence anisotropy
# Gbp2 RRM3 [2] = biological target: T1, Gbp2 RRM3; assay: fluorescence anisotropy
Binder,binding result (Gbp2 RRM3 [1]),binding result (Hrb1 RRM2),Kd (Gbp2 RRM123),Kd (Gbp2 RRM12),Kd (Gbp2 RRM2),binding result (Gbp2 RRM3 [2])
AAAAAAAAAAAA (ssRNA) [A12],no binding,,,,,
UUUUUUUUUUUU (ssRNA) [U12],no binding,,,,,
GTGGTGGGTGGGTGTGTGTGGGTGTGGTGGGTGTGTGGGTGTG (ssDNA) [TG-43],,no binding,~0.059 µM,,,
TTGGTGTT (ssDNA) [d(TTGGTGTT)],,,17 ± 2 µM,24 ± 2 µM,310 ± 90 µM,no binding
UUGGUGUU (ssRNA) [Selex RNA UUGGUGUU],,,3.3 ± 0.8 µM,5.5 ± 0.7 µM,54 ± 4 µM,no binding
